Biological target: the molecule itself
Test: crystal structure; PaFabB C161A lacking the His-tag (9-23 mg/mL) in 20 mM Tris-HCl, 150 mM NaCl, 1 mM DTT, pH 7.4; sitting drop, 20°C; 0.2 M sodium iodide, 0.1 M Bis-Tris propane pH 7.5, PEG 3350, ethylene glycol; space group C 2 2 21, 2 protein molecules in the asymmetric unit; 1.3 Å

B1: Pseudomonas aeruginosa FabB C161A (3-oxoacyl-[acyl-carrier-protein] synthase 1), without His-tag (enzyme)
chain: MRRVVITGLGIVSCLGNDKDTVSANLRAGRPGIRFNPSYAEMGLRSHVSGSVDLNLEELIDRKVFRFMGDAAAYAYLAMEQAIKDSGLTPEQISNPRTGLIAGSGGASTLNQMEAIDTLREKGVKRIGPYRVTRTMGSTVSACLATPFQIKGVNYSISSAAATSAHCIGQAMEQIQLGKQDVVFAGGGEEEHWSQSCLFDAMGALSTQYNETPEKASRAYDAKRDGFVIAGGGGMVVVEELEHALKRGAKIYAEIVGYGATSDGYDMVAPSGEGAIRCMQQALATVDAPIDYLNTHGTSTPVGDVAEIRGVREVFGDKAPAISSTKSLSGHSLGAAGVHEAIYCLLMMEGGFIAGSANIDELDPEVADLPILRETRENAKLDTVMSNSFGFGGTNATLVLKRWQG
notes: FabB (3-oxoacyl-[acyl-carrier-protein] synthase 1) of P. aeruginosa PA14, ORF PA14_43690, with the point mutation C161A; gene synthesised and cloned NdeI/BamHI into pET-28a(+)-TEV; 808 protein residues modelled in the dimer; also called PaFabB C161A; cleaved PaFabB C161A; not shown: His6, N-terminal, cleaved
  stoichiometry N: 2
